Source: the supplement of paper PMC12042874
± gives the uncertainty stated by the source.

Test: amyloid nucleation score (Sup35N fusion, yeast selection) (log enrichment); library NNK2; higher = more nucleation; inactive = no reads after selection
Outline: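 Using DiMSum, nucleation scores were taken as the log enrichment of output over input reads, centred on the mode score of non-aggregating sequences. The input and output reads came from Illumina sequencing of plasmid inserts, with sequences under 100 input reads excluded. The yeast were psi-negative, expressed Sup35N fused to peptides of 20 random codons, were induced with 100 μM copper sulfate for 24 hours, and were grown 7 days at 30°C on medium lacking adenine and uracil.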

Substance | amyloid nucleation score
LTYAYNISYFNWVYCGYWFC | 6.448 ± 0.042
WLNLGMNLLLE | 3.77 ± 0.093
DTPITDCELPAYFQVITNWL | 0.007 ± 0.76
TRMDNAY | -0.132 ± 0.65
CFCLWGLDDLVLGLGSTMRF | 3.16 ± 0.057
WKLAHISLDFHFLYSR | -0.269 ± 0.61
SYLKYVDWQTFKVTWCAGGN | -0.38 ± 0.54
VYSLFSYLRDTLVV | -0.534 ± 0.74
ILLNTSYVYLTDSMEFTVGL | 2.15 ± 0.14
FLACRSLGKPRMFDRSLRYV | 0.185 ± 0.44
YGVFRSESRPTCLKSLDRMK | 0.575 ± 0.34
ISTINNGYVFRLYLGSCILD | 6.02 ± 0.081
ERGQGKHRNEGVHYNRWCGC | 2.15 ± 0.17
VLNERYSTLVVAPTRNASGL | inactive
IYSEDGRAMASMIHVSRKHG | 0.91 ± 0.43
ETKKLYDRAARERRCCRNHY | 0.078 ± 0.3
TSCFLLIQGIFGGLGITGMP | 2.97 ± 0.099
NIDSVLRNYSCDHRKYHSLE | -0.305 ± 1
WFLCWYSTPTLGCCKKEGSA | 0.056 ± 0.33
KVGVVNYTTSLRFAGRDSSL | 4.52 ± 0.091
NGIKFRGMVVTP | 0.294 ± 0.65
CYLLN | -0.805 ± 0.44
AISCSVTWNVTMTSGLTPLC | 1.17 ± 0.37
IQQFVKVFVGDLNLTVDRNM | 7.554 ± 0.06
VLICFVSLRLKVGTLIPTTT | -0.37 ± 0.76

Substance | amyloid nucleation score
LQKDYTSMH | inactive
HRTMHRTHSICGGVDQRELL | -0.538 ± 0.48
TIGPKFLLIIKMRCLWMNEE | 0.105 ± 1.1
KMSYVYP | -0.622 ± 0.41
LIGVMGRCPGVLHLRSFVRD | 0.163 ± 0.37
IHRILCHGVRASMLGGSVAL | 0.067 ± 0.79
ISFSSTSIHFGD | 1.04 ± 0.11
PARLTNCGDPSY | -0.997 ± 0.3
SSIGMVDIVKTLMGK | -0.089 ± 0.61
TVWDLPLVAFCKHGTDHLLS | -0.121 ± 1.1
VAYVKACRTSGVHQLSTDHV | 1.67 ± 0.34
CGLVAVNDYLGVRVGLFHIC | -1.01 ± 1.1
LFVSSDRHRSDESSGDACCL | -0.494 ± 0.76
NEVTRAWSEFPYFMVSRHMT | 0.813 ± 0.47
YRLGLCGTFHINCVLINRDG | 5.2 ± 0.056
INIHIFGWLIGLRGCM | -0.504 ± 1.1
CQTHPYYVICFQAVKKCWES | -0.899 ± 0.56
LVACMASDITNNMSRLYHLI | -1.79 ± 1.1
SDLRRCM | 0.277 ± 0.21
RKVRCRYSMT | 0.142 ± 0.6
CLYYEPVSL | -0.263 ± 1.1
PIKVDEVCGCRRRWFGDWDS | -0.146 ± 1
WYWPCKGTREFKFNLYECSG | 0.517 ± 0.41
EGTTKFDWHYYQVSTGNFAS | 1.05 ± 0.51
CSCNRLDYWAVNGRARRFKL | 0.932 ± 0.81

Substance | amyloid nucleation score
VVDCMCSGLHWVQVGILSQP | 1.19 ± 0.39
RPDQTRF | -0.022 ± 0.5
SMDFNNDC | inactive
SIFMDRCDWPSCSFGRIHEV | -0.521 ± 0.35
NDSNIRINNFFGNFTFGREL | 7.485 ± 0.041
VMWKEFLPGILCGCCKLGFS | -0.481 ± 0.33
LNGYATLCYPVILSRIVYGP | 4.03 ± 0.043
VYENKIA | 0.313 ± 0.47
FPAWTDGVVLVRVVGASTEE | -0.132 ± 0.34
VLGNSLELVGNRLDSI | 4.11 ± 0.066
FYLISWKWVKHVGIFA | -0.618 ± 1.1
CHRLDWINYLCGSHKAIMIV | -0.472 ± 0.5
LNVHCAGCCANWPLC | 9.041 ± 0.026
GVSHMALSSARSFMITDLRS | 3.44 ± 0.14
KFFDRYMFTRGLHT | 7.819 ± 0.051
FIMEAFFEPFNKGYRYRMMS | 0.833 ± 0.18
SDGNELDWIAGLTMYRGVER | 0.319 ± 0.8
FYKWGVVIFDGNCIEKWDIL | -1.52 ± 0.75
SAQNDEKFLDPVSVIPRCKS | 0.443 ± 0.56
LDRFLSMRLFLPYVTNLRNH | -0.431 ± 0.64
LSVGLNKYRNA | -0.919 ± 0.76
FLYRVNAKWVWLRGLSLWQW | 0.252 ± 0.23
CWQMRGKLFHS | 0.983 ± 0.14
FCEWGSEYWGNMDCDACDTA | -1.09 ± 0.76
MNKCIWGIYYR | -1.6 ± 1.1

Substance | amyloid nucleation score
IGGGTLYWGVDWVMY | 2.96 ± 0.12
SRSLWYVLNYYV | 0.062 ± 0.29
LRFCYKEATV | 0.016 ± 0.65
DIMLAPHNSVDNGSRKEYGA | 0.424 ± 0.64
YNYLAMPQMLMEYFISVVVS | 2.05 ± 0.089
PMVDRMMDASRWLPLDY | 0.109 ± 0.45
TSSWRVWAYQSAAANMHTDL | 5.01 ± 0.06
FYSTVGSSFWTARQGISLQI | 1.05 ± 0.25
YMTTNRKPLDFYQHVYLMKV | inactive
YTWVYPF | -1.01 ± 0.33
NERRT | 0.995 ± 0.53
YIVCKDSTSQVYYFSSDNFY | 4.09 ± 0.095
FMYGTDSFGL | -1.08 ± 0.78
VGLGVRVEVLTMSFTILQSV | 3.36 ± 0.078
PMFCFCPLCLWHKDCISINS | 8.227 ± 0.078
PHLFRPGTADVLYHYMTMRK | 0.628 ± 0.37
AWENYYSGLVNLLAASACIV | -0.163 ± 0.79
KGGEVEGLSLR | -0.889 ± 0.63
RAMANHHDDWLVPGFQ | -0.258 ± 0.45
IVCQDFYTAWEYYTYAHR | 3.07 ± 0.048
IRPSWLKENLRMVYWYKDYP | 2.53 ± 0.077
SFNYP | inactive
SWSAIEPQVPKYYYSL | -0.623 ± 0.79
MPHPLLLSFEENLIDCLYDH | -0.693 ± 0.64
TSIIVTMLDPYWVISNSCAH | 5.701 ± 0.038

Substance | amyloid nucleation score
LYDYYQICINGGRVFSDFPC | -0.474 ± 0.79
NQFEGLKMRSTKLGAGGS | -0.293 ± 0.64
FYLSFRVECLGRR | 4.782 ± 0.045
ELILFITYTCIFWADCGRLY | -2.12 ± 1.1
SRHYYRFHTFAVVGWLSLYW | -0.849 ± 1.1
FFAGKCGIMTSLRDLSVAFG | -0.071 ± 0.65
RFCRVDKWEVRQGM | 5.339 ± 0.051
KFKATWYRNSFRAMPCVKPA | 0.042 ± 1.1
IFYYIDCCHITARYFQREGM | 7.71 ± 0.081
LLAKSLDTGILD | 6.487 ± 0.025
SYLCDPLRETTYSPKYLRST | 0.667 ± 0.38
IYLVSNLMGYKCFLSNHLAR | 0.151 ± 0.32
FLSARHGRGFARGFSPP | inactive
IRWAFWSRYGSWAKLSLRIV | -0.995 ± 0.56
VSSWGMYYWFS | 0.06 ± 0.44
CLYARHFVNCNGYATGTLMD | -0.163 ± 0.61
NVDQEMDYDYERIGFLPIGT | -0.204 ± 0.33
YCANDVVMLSA | 1.06 ± 0.17
QELYSDLPRPSGSPLQLWAK | -0.246 ± 0.76
LWVIISCSDYLNWLNRGMNE | 5.45 ± 0.056
MIVLKRSPSLCSIS | -0.007 ± 0.34
NGCYQGYKCVLRQLAFKSSG | -0.17 ± 0.5
FEGVTYSRVV | 0.001 ± 0.54
ICEVRIFKLNMVVCSLYYMV | -1.12 ± 0.76
SKRRSSLQPS | -0.151 ± 0.31

Substance | amyloid nucleation score
YIRLATYSLYALDWAVRKNR | -0.548 ± 1.1
VDICGTRGKRRYCSLRLFAW | -0.594 ± 1.1
GYSFRYTFCSHSGDVAVVSK | -0.739 ± 1
QKNLEGLPEVEGNRRRCVVR | 0.033 ± 0.52
CDSARFEGNVEAAR | -0.134 ± 0.34
FAYISRFKGG | 4.22 ± 0.059
LYNYSSFLNTVGVGYEIFMR | -0.105 ± 1.1
MLTTMCDELQLLVGPLGDRV | 0.253 ± 0.3
QLHLTEVLFQS | 0.154 ± 0.22
SYRNTIWVSINALGVSWEAS | 2.52 ± 0.078
LSEMYTFCEDSRAFTVYWTF | -1.02 ± 0.45
TYCNRLRNRLMFFLYSPTTS | -0.587 ± 0.79
MICDLMAVVNVQSKWRYSDK | 5.052 ± 0.038
RCWWAYQ | 1.11 ± 0.12
NSKVFS | 0.011 ± 1.1
SNLEFNLE | -0.747 ± 0.37
PSVRTYTV | 4.67 ± 0.054
FRNSNLT | -0.462 ± 0.76
HIEFDRWAPHLVDLPTGPMK | inactive
VVRLSSYNASTPLSVSFRRG | -0.171 ± 0.74
SRCGIWPWLRHDKVD | 0.853 ± 0.18
MTTALDGSLYVWCQCAVDVI | 0.379 ± 0.54
KDLEFGRCIDDDYPLSRSF | 0.141 ± 0.46
IWVGSILTQSPVVDGYFRCR | 0.145 ± 0.35
RAMLNLKE | 2.46 ± 0.053

Substance | amyloid nucleation score
MHCIFSNLV | inactive
GKFQMS | -0.244 ± 0.56
RLWYHVICVDYDGGEYRSSG | 0.388 ± 0.36
VLPRGD | 0.125 ± 0.4
GMNLNLPTQTHTSVRHNRG | 2.75 ± 0.14
FDGTIYCPSWILWETPGVNK | inactive
PVKIGMFPVGRWQFKDQFGF | -0.704 ± 0.44
HSCRTYI | inactive
TYDLGCDYPIVPYVNFLCM | 6.59 ± 0.072
LSGLEDMSISSNDYSSDVAR | 0.45 ± 0.8
IWESSIYLNEETNDCLEKL | inactive
NIDSWVKGFVKY | -0.558 ± 1
LLLINLLFSASKLALSM | -0.679 ± 1.1
RIISHDSCRVIFGKFRVDVW | 1.23 ± 0.57
SRKGVTLLVLNNSLTHRSCN | 3.72 ± 0.049
CRRFSEYNVLCSDLNPIMVL | 0.404 ± 0.66
DTVLAI | 0.035 ± 0.74
NDGLSILVASNMCLSFAWAW | 5.109 ± 0.04
NYWGVARKFEFSDECLFLDG | 0.596 ± 0.54
YLSLNGVHYCIGSITIPSQR | 8.06 ± 0.083
SDYYVFTDVFVGGYNLDE | -1.04 ± 1
